# According to paper PMC7458460:
# Molecular target: CN391 (CNA_(1–391)/CNB_(1–170)) (UniProt Q08209)
# Assay: ITC
# Sequence of RCAN1_(core) WT (residues 128 to 164) (P53805 183-219): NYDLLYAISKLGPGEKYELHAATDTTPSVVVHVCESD
# Sequence of CN391 (CNA_(1–391)/CNB_(1–170)) (Q08209 1-391, chain 1 of 2): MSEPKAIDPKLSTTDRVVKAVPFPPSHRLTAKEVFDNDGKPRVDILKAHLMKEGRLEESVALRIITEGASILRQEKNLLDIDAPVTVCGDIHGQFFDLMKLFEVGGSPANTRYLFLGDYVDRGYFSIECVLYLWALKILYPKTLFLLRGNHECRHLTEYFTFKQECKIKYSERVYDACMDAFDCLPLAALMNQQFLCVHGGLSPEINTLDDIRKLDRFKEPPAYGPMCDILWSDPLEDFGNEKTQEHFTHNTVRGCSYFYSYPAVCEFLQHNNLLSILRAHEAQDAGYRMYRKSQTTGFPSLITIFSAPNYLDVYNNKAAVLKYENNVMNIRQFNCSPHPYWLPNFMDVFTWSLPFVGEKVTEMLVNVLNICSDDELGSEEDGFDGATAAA
# Sequence of CN391 (CNA_(1–391)/CNB_(1–170)) (P63098 whole entry, chain 2 of 2, further chain): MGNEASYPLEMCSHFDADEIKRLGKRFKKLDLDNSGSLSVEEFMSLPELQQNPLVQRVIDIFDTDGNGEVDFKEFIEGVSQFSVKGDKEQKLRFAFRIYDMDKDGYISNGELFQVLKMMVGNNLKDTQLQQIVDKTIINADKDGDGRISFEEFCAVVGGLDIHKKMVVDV
substance,measurement,value
RCAN1_(core) WT (residues 128 to 164) (from UniProt P53805-2 128-164) (domain or fragment),Kd,161 nM
same,dH,-18.8 kcal/mol
